System: HT29 human colon cancer cells
Test: Cytotoxicity (viability) test on HT29 cells, methylene blue staining
Assay type: cell-based
Conditions: TRAIL alone, sublethal doses 25, 50 and 100 ng/ml, 24 hours
Experimental: FIG. 1: Graphs illustrating the synergy observed in vitro between TRAIL and P. freudenreichii metabolites. HT29 colon cancer cells were treated with sublethal doses of TRAIL (25 ng/ml, 50 ng/ml and 100 ng/ml). Various doses of SCFA (propionate/acetate SCFA, FIG. 1A) or of P. freudenreichii supernatant (FIG. 1B) were used in co-treatment. Viability of the HT29 cells was determined after 24 hours of treatment. […] More precisely, the viability illustrated in FIG. 1 was determined using the following cytotoxicity test. HT29 human colon cancer cells (ATCC, Biovalley) were cultured in 96-well plates (30,000 cells/well) for 24 hours. […] At the end of treatment (24 hours), the medium was discarded and the adherent cells were washed three times with 1× PBS (100 μl/well) and fixed in 99% ethanol (100 μl/well) for 30 minutes. After discarding the ethanol, the fixed cells were air dried and then stained for 30 minutes with methylene blue (diluted in 1× borate buffer). After three washings in water and drying (roughly 30 minutes), 100 μl of hydrochloric acid (0.1 N) was added to the wells. The plates were then analyzed by spectrophotometer at a wavelength of 620 nm (iEMS Reader MF; Lab-systems, Helsinki, Finland).

B1: TRAIL: cytokine TNF-related apoptosis-inducing ligand; SuperKillerTRAIL™ (Alexis Biochemicals) used in the HT29 test (protein)
chain: TSEETISTVQEKQQNISPLVRERGPQRVAAHITGTRGRSNTLSSPNSKNEKALGRKINSWESSRSGHSFLSNLHLRNGELVIHEKGFYYIYSQTYFRFQEEIKENTKNDKQMVQYIYKYTSYPDPILLMKSARNSCWSKDAEYGLYSIYQGGIFELKENDRIFVSVTNEHLIDMDHEASFFGAFLVG
**Q.** B1 was tested. Which “cell death (viability of HT29 cells)” value did it give?
**A.** do not significantly induce cell death

Reference: US9476056B2, “Recombinant vector for producing and secreting peptide or protein of interest by propionibacteria and applications thereof” (INSTITUT NATIONAL DE LA SANTE ET DE LA RECHERCHE MEDICALE …, priority 2010, dated 2016)
